{"source": "IntAct's records for PubMed 21743455", "parents": {"B1": {"name": "Wnt inhibitory factor 1 (Homo sapiens), Q9Y5W5 (parent)", "chain": "MARRSAFPAAALWLWSILLCLLALRAEAGPPQEESLYLWIDAHQARVLIGFEEDILIVSEGKMAPFTHDFRKAQQRMPAIPVNIHSMNFTWQAAGQAEYFYEFLSLRSLDKGIMADPTVNVPLLGTVPHKASVVQVGFPCLGKQDGVAAFEVDVIVMNSEGNTILQTPQNAIFFKTCQQAECPGGCRNGGFCNERRICECPDGFHGPHCEKALCTPRCMNGGLCVTPGFCICPPGFYGVNCDKANCSTTCFNGGTCFYPGKCICPPGLEGEQCEISKCPQPCRNGGKCIGKSKCKCSKGYQGDLCSKPVCEPGCGAHGTCHEPNKCQCQEGWHGRHCNKRYEASLIHALRPAGAQLRQHTPSLKKAEERRDPPESNYIW"}}}
{"variants_of": "B1", "conditions": "with wnt3a_mouse Wnt3a"}
{"variant": "MARRSAFPAAALWLWSILLCLLALRAEAGPPQEESLYLWIDAHQARVLIGFEEDILIVSEGKMAPFTHDFRKAQQRWPAIPVNIHSMNFTWQAAGQAEYFYEFLSLRSLDKGIMADPTVNVPLLGTVPHKASVVQVGFPCLGKQDGVAAFEVDVIVMNSEGNTILQTPQNAIFFKTCQQAECPGGCRNGGFCNERRICECPDGFHGPHCEKALCTPRCMNGGLCVTPGFCICPPGFYGVNCDKANCSTTCFNGGTCFYPGKCICPPGLEGEQCEISKCPQPCRNGGKCIGKSKCKCSKGYQGDLCSKPVCEPGCGAHGTCHEPNKCQCQEGWHGRHCNKRYEASLIHALRPAGAQLRQHTPSLKKAEERRDPPESNYIW", "note": "[M77W]", "effect of a mutation on the interaction": "decreasing interaction"}
